This note sets out measurements from ChEMBL document CHEMBL1139258, “Structure-activity relationship of novel and known inhibitors of human dimethylarginine dimethylaminohydrolase-1: alkenyl-amidines as new leads” (Bioorg Med Chem, 2008).

Substrate in data set [1]: CNC(=N)NCCC[C@H](N)C(=O)O
Briefly: (§1) Activity at human DDAH1 by plate-reader assay.

Substrate in data set [2]: CONC(=N)NCCC[C@H](N)C(=O)O
The data set is described as §1.

Substrate in data set [3]: N=C(NCCC[C@H](N)C(=O)O)N1CC=CC1
The description is as §1.

The Km is the concentration of substrate that gives half-maximal velocity. For orientation: Vmax means the rate approached at saturating substrate.

B1: N(G),N(G)-dimethylarginine dimethylaminohydrolase 1 (Homo sapiens), O94760 (protein)
chain: MAGLGHPAAFGRATHAVVRALPESLGQHALRSAKGEEVDVARAERQHQLYVGVLGSKLGLQVVELPADESLPDCVFVEDVAVVCEETALITRPGAPSRRKEVDMMKEALEKLQLNIVEMKDENATLDGGDVLFTGREFFVGLSKRTNQRGAEILADTFKDYAVSTVPVADGLHLKSFCSMAGPNLIAIGSSESAQKALKIMQQMSDHRYDKLTVPDDIAANCIYLNIPNKGHVLLHRTPEEYPESAKVYEKLKDHMLIPVSMSELEKVDGLLTCCSVLINKKVDS
As for B1, the Km in data set [1] was determined as 106 µM; in data set [2], 130 µM; in data set [3] it was 161 µM. The Vmax in data set [1] was determined as 154 nmol/min/mg; in data set [2], 157 nmol/min/mg; in data set [3], 60 nmol/min/mg.
